Source: patent publication US20040137581A1 (Xencor, published 2004)
Substitutions are numbered along the chain they refer to.

T1: type I interferon receptor (UniProt P17181 28-557; P48551 27-515, limits assumed)
T1 sequence (looked up) 1: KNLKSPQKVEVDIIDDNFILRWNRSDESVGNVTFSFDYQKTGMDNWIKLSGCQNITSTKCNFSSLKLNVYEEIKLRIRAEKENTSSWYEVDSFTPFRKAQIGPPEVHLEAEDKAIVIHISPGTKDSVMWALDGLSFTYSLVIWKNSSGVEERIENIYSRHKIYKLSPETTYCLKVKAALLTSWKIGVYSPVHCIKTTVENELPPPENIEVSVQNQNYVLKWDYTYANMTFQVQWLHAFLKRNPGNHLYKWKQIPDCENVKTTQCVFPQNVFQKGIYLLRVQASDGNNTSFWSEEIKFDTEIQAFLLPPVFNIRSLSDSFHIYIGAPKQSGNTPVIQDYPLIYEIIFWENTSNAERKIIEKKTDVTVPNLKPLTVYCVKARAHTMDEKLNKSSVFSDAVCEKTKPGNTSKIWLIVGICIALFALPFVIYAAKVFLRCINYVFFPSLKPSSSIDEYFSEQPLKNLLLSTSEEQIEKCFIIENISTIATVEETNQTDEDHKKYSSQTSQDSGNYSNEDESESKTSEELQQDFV
T1 sequence (looked up) 2: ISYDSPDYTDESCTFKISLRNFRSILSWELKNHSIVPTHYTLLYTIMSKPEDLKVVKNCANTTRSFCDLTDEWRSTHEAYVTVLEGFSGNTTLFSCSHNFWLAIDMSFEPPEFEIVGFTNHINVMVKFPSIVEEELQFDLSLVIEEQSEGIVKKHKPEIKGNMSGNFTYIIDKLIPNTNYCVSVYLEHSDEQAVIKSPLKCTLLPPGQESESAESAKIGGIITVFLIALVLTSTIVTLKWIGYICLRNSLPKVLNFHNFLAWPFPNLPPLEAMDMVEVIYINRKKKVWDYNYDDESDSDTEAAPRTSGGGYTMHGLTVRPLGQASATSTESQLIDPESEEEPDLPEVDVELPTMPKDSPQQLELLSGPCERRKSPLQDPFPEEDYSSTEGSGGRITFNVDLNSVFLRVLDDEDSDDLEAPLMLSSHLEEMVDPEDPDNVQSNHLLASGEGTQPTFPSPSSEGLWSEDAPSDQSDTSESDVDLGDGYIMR

B1: IFN1_1 (ligand)
chain: MGSSHHHHHHSSGLVPRGSHMSYNLLGFLQRSSNFQSQKLLWQLNGRLEYCLKDRMNFDIPEEIKQLQQFQKEDAALTIYEMLQNIFAIFRQDSSSTGWNETIVENLLANVYHQINHLKTVLEEKLEKEDFTRGKLMSSLHLKRYYGRILHYLKAKEYSHCAWTIVRVEILRNFYFINRLTGYLRN
B2: IFB1_23 (ligand)
chain: B1 chain with L25Q, F28E, L136E
B3: IFB1_36 (ligand)
chain: B1 chain with F28E, F131N, L136E
B4: IFB1_2 (ligand)
chain: B1 chain with L25Q
B5: IFB1_7 (ligand)
chain: B1 chain with L25Q, F28E
B6: IFB1_64 (ligand)
chain: B1 chain with L25Q, F28E, L67K, F131N, L136E, L140R
B7: IFB1_15 (ligand)
chain: B1 chain with L25Q, F28E, F131N
B8: IFB1_39 (ligand)
chain: B1 chain with L25Q, F28E, F131N, L136E
B9: IFB_GM2 (ligand)
chain: B1 chain with L67S, F70S, L126S, F131S, L136S, L140S

target: T1, type I interferon receptor; assay: cell-based or functional assay

Binder	EC50, ISRE-luciferase reporter assay in 293T cells	EC50 wt/EC50 var, ISRE-luciferase reporter assay in 293T cells
B1	5.31 ng/mL	1 ratio
B2	0.277 log ng/ml	19.2 ratio
B3	0.294 log ng/ml	18 ratio
B4	0.428 log ng/ml	12.4 ratio
B5	0.179 log ng/ml	29.6 ratio
B6	0.24 log ng/ml	22.1 ratio
B7	0.319 log ng/ml	16.6 ratio
B8	0.193 log ng/ml	27.5 ratio

target: T1, type I interferon receptor; assay: cell-based or functional assay; remark: another data set of the same source

Binder	EC50, ISRE-luciferase reporter assay in 293T cells	EC50 wt/EC50 var, ISRE-luciferase reporter assay in 293T cells
B1	1.9 ng/mL	1 ratio
B9	130 ng/mL	0.015 ratio
B5	0.074 ng/mL	25.7 ratio
